Source: the supplement of paper PMC9170038

Legend:
MS2 coat protein [1] = assay: apparent KD of MS2 coat protein, switch ON state; designed switch direction (-1 OFF switch, 1 ON switch): 1; higher = weaker reporter binding; conditions: FMN input: 0 or 200 uM; Eterna round: R93 (includes R88 designs)
Outline: (§1)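 For every design, apparent KD is the median of normalised binding-curve fits from its clusters. The RNA switches were transcribed on-chip from Illumina sequencing clusters and titrated with SNAP-549-labelled MS2 coat protein (twofold steps, 0.7 or 1.5 nM to 3 µM; 0.8–1.5 h to 10–20 min per step). Titrations used 100 mM Tris-HCl pH 7.5, 80 mM KCl, 4 mM MgCl2, without or with constant ligand.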

MS2 coat protein [2] = assay: apparent KD of MS2 coat protein, switch OFF state (with FMN for OFF switches, without FMN for ON switches); designed switch direction (-1 OFF switch, 1 ON switch): 1; higher = weaker reporter binding; conditions: FMN input: 0 or 200 uM; Eterna round: R93 (includes R88 designs)
Outline: as §1

Sequence	apparent KD of MS2 coat protein (MS2 coat protein [1]) [nM]	apparent KD of MS2 coat protein (MS2 coat protein [2]) [nM]
AAGAAACAUGAGGAUCACCCAUGUACCCAAAAGGCAGGAUAUGGGAAAGAAAGAAAGAAACCAGAAGGGCCAUGAA [Sogdianus]	30.1	57.1
AAAAAACAUGAGGAUCACCCAUGUAAAAAAAUGGGAGGAUAUCUGAAUUAAUUAAAUUAAGGAGAAGGCCUAAAAA [71%, Same state of confusion2, 4]	26	425
AGAAAUAAAAGACAGGAUAUCCAAAACUCAACAUGAGGAUCACCCAUGUAAAAGAAAAUAAAAUGGGAGAAGGGUCAAAAUAAGA [Jieux modified + C segment V2]	15.3	33.8
CAUAGACAUGAGGAUCACCCAUGUAGAAUUAUGGGAGGAUAUACAAAGACGAGAGUCAGAGUAGAAGGCCUAGGAG [salish99-ss1-163]	24.4	34
AGAAAUAAAACGAAGGAUAUCCAAAAUAAAACAUGAGGAUCACCCAUGUAAAAGAAAAUAAAGUGGGAGAAGGUCGAAAAUAAGA [Designing denovo 15]	12	54.4
AAAUGAUCAUGUGAGGAUAUCCAUAAUAAAACAUGAGGAUCACCCAUGUAUAGAUAAUAAUAAUGGGAGAAGGCACAUGAUCAAU [Mat - Same state - Mayanna Mod - D103]	20	17.2
AAUAGACAUGAGGAUCACCCAUGUAGAAUUAUGGGAGGAUAUACAAAGACGAGAGUCAGAGUAGAAGGCCUAGGAG [salish99-ss1-150]	22.1	48.3
CAGGACCUAGGAUAGGAUAUAUGAAUAAUUACAUGAGGAUCACCCAUGUCCAUUUAUAUGGGAACAUAGAAGGGUUGUGGUUAUG [Mat - Same state - Malcolm Mod - D133]	179	118
AAAAAACAUGAGGAUCACCCAUGUGACAACAUGGGAGGAUAUACAAAGACGAGAGUCGAAGUAGAAGGCCUAAAAA [Garnet 77]	66.1	32.6
GAAAAACAUGAGGAUCACCCAUGUGGAAAUAUGGGAGGAUAUACGAAGACGAAAGUCGAAGUAGAAGGCCUAAAAG [Same State 1.4d (Mat - Mod of Eli - )]	29.5	98.1
AAUAACUAUAGCAAGGAUAUCCGAAACAAGACAUGAGGAUCACCCAUGUAAUAAGACAAAAUAUAGGAGAAGGUGCAGGGUGAAA [JR_SS002_Sub010]	75.3	116
AAAAAACAUGAGGAUCACCCAUGUCAAAAGACAUGAGGAUAUGUACAGACUUCGGUCUGUACAGAAGGCAUGUCAA [SS1 - 1019]	21.1	31.7
AUUCCAAAUAGUCAGGAUAUCAGGCGUAAGACAUGAGGAUCACCCAUGUACUUAGUAAAAGUAACUGAGAAGGGACAGGGUGUAA [JR_SS002_Sub407]	8.64	18.5
AAUAUAUUAAGUGAGGAUAUCGAGGAAAAAACAUGAGGAUCACCCAUGUGGGAAACAUGGUCGGGUGAGAAGGCACUUAAUAUAU [Samwise Clockwise 25 - Jieux - Same State 2]	125	326
AAUAUACAUGAGGAUCACCCAUGUUAGGUGGGACUAGGAUAUCAAAAUAAAUAAAGAACAUGAGAAGGAGUAUAAA [JR_SS001_Sub017]	75.3	178
AGAAAUAAAGCUGAGGAUAUGGGUAAAUACACAUGAGGAUCACCCAUGUAAAAGAAAAUAAAAAACCAGAAGGCAGCAAAUAAGA [Designing denovo 4]	23.4	30.8
AAAAAACAUGAGGAUCACCCAUGUAAAAAUAUGGGAGGAUAUGCGAAAAGAAACAAAGAAGCAGAAGGCCUAAAAA [75%, Ex5 sub 1, 8]	25.6	185
CAUCAUGCGCCUAAGGAUAUGUCUCACAAGACAUGAGGAUCACCCAUGUAGAAUAAAUAAAUGAUGCAGAAGGUGGAGCACAUGC [Leedanla]	372	586
AGAAAUAAAAGACAGGAUAUCCACUCAAAAACAUGAGGAUCACCCAUGUAAAAGAAAAUAAAAUGGGAGAAGGGUCAAAAUAAGA [Jieux modified + C segment V7]	15.5	48.6
AGGAAACAUGAGGAUCACCCAUGUAAAAAAUAUGGAGGAUAUGCUAGAAGAAACAAAAUAGCAGAAGGCCAAAAAA [75%, Ex sub1, 23]	13.7	24.7
